Assay [1] concerns the target T1, recombinant human PCSK9, V5-, His-tagged (human, UniProt Q8NBP7 31-692, limits assumed). Kind of assay: cell-based or functional assay.
Assay [2] addresses T1, recombinant human PCSK9, V5-, His-tagged. Kind of assay: cell-based or functional assay. The source holds these as a separate data set.
For assay [3] the target is unchanged. Kind of assay: SPR (Biacore 2000), Direct (PCSK9 immobilized, Fab in mobile phase), mean N = 2. For orientation: In SPR one partner is held on a chip, and binding of the other changes the refractive index at the surface.
For assay [4], the target named is T2, V5-, His-tagged secreted alkaline phosphatase protein (SEAP) (UniProt P05187 23-511).
T2 construct: Tag control antigen, expressed in the same cells as the PCSK9 antigen and similarly purified; not shown: V5 and His tags
T2 sequence (P05187 23-511): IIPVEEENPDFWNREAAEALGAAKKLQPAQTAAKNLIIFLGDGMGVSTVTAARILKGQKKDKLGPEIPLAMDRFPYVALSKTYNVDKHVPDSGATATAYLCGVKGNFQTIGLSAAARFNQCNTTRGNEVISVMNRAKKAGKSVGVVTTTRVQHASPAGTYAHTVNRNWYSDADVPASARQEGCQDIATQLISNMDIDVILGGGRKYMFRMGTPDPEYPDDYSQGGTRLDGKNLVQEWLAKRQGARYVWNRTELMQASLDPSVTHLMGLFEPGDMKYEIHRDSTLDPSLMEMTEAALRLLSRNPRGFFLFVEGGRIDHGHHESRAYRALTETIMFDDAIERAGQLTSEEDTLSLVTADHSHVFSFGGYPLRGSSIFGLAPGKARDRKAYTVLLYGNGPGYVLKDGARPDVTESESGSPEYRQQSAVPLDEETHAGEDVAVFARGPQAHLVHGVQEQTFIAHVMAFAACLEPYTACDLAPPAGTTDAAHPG
Kind of assay: ELISA, immobilized V5-, His-tagged SEAP, Fab culture supernatant, HRP anti-Fab detection. Here is the method: Cultures of individual transformants were IPTG-induced and grown overnight for Fab expression. Culture supernatants (candidate Fabs) were incubated with purified V5-, His-tagged PCSK9 protein immobilized in wells of 96-well Nunc Maxisorp plates, washed with 0.1% Tween™ 20 in PBS using a plate washer, incubated with HRP-coupled anti-Fab antibody, and washed again with PBS/Tween™ 20. Bound HRP was detected by addition of […] substrated, and A₄₅₀ values of wells were read with a plate reader.
EsB antigen was bound to three wells of the plate and subsequently incubated with anti-EsB Fab. To control for Fabs reacting with the V5 or His tags of the recombinant PCSK9 antigen, parallel ELISAs were performed using V5-, His-tagged secreted alkaline phosphatase protein (SEAP) expressed in the same cells as the original PCSK9 antigen and similarly purified. Putative PCSK9-reactive Fabs were identified as yielding>3× background values when incubated with PCSK9 antigen but negative when incubated with SEAP. Clones scoring as PCSK9-reactive in the first round of screening were consolidated onto a single plate, re-grown in triplicate, re-induced with IPTG, and re-assayed in parallel ELISAs vs. PCSK9 and SEAP. Positive and negative controls were included as described above. Clones scoring positive in at least 2 of 3 replicates were carried forward into subsequent characterizations. In cases of known or suspected mixed preliminary clones, cultures were re-purified by streaking for single colonies on 2×YT plates with chloramphenicol, and liquid cultures from three or more separate colonies were assayed again by ELISAs in triplicate as described above.
In general terms: ELISA stands for enzyme-linked immunosorbent assay.

Assay [5] deals with T1, recombinant human PCSK9, V5-, His-tagged. Description: cell-based or functional assay. The source holds these as a separate data set.
Assay [6] has the same target. Kind of assay: cell-based or functional assay. The source holds these as a separate data set.
Assay [7] has the same target. Description: cell-based or functional assay. This is another data set of the same source.
Assay [8] has the same target. Kind of assay: SPR (Biacore 2000), Direct & Ab Capture, mean N = 3. Here is the method:
SPR measurements were performed using a Biacore™ (Pharmacia Biosensor AB, Uppsala, Sweden) 2000 system. Sensor chip CM5 and Amine coupling kit for immobilization were from Biacore™.
Anti-Fab IgG (Human specific) was covalently coupled to surfaces 1 and 2 of a Sensor Chip CM5 via primary amine groups, using the immobilization wizard with the “Aim for immobilization” option. A target immobilization of 5000 RU was specified. The wizard uses a 7 minute activation with a 1:1 mixture of 100 mM NHS and 400 mM EDC; injects the ligand in several pulses to achieve the desired level, then deactivates the remaining surface with a 7 minute pulse of ethanolamine.
Anti-PCSK9 Fabs were captured on capture surface 2 and surface 1 was used as a reference for kinetic studies of Fab:PCSK9 interactions. Fab was captured by flowing a 500 ng/ml solution at 5 μl/min for 1-1.5 minutes to reach a target RL for an Rₘₐₓ of 100-150 RU for the reaction. 5-10 concentrations of hPCSK9v5H is or mPCSK9v5H is antigens were flowed across the surface at 30 μl/minute for 3-4 minutes. 15-60 minutes dissociation time was allowed before regeneration of the Anti-Fab surface with a 30 second pulse of 10 mM glycine pH 2.0.

Assay [9] shares this target. Description: cell-based or functional assay. This is another data set of the same source.

Read-outs that look alike come from different tables or passages of the source.

T1 sequence (Q8NBP7 31-692 limits assumed): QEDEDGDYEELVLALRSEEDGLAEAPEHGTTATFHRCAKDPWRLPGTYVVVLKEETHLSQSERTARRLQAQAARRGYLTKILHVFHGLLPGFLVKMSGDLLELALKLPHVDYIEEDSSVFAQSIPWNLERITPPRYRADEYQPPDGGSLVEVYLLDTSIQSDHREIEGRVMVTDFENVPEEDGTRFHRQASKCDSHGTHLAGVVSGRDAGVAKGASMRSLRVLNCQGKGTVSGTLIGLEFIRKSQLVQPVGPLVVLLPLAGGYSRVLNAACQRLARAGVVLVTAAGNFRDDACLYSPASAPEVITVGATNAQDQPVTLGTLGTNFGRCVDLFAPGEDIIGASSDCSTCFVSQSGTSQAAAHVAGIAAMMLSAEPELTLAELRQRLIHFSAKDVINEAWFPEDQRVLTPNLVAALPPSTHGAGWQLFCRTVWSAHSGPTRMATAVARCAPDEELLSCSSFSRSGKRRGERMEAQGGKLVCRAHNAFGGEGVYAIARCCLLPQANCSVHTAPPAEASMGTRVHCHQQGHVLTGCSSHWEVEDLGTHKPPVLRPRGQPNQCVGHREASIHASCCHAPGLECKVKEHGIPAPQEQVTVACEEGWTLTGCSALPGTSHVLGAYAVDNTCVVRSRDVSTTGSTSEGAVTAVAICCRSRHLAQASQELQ

B1: 3BX5C01 (Fab, V domains shown)
VH: QVQLVQSGAEVKKPGESLKISCKGSGYSFTSYGISWVRQMPGKGLEWMGMIDPSDSFTTYSPSFQGQVTISADKSISTAYLQWSSLKASDTAMYYCARGYYFTYALQPMDHWGQGTLVTVSS
VL: DIELTQPPSVSVAPGQTARISCSGDNLRDYIVHWYQQKPGQAPVLVIYDDSNRPSGIPERFSGSNSGNTATLTISGTQAEDEADYYCGFDNGGDIDVFGGGTKLTVLG
notes: also called 3BX5C01 Fab
For B1, the “inhibition of PCSK9-dependent inhibition of cellular LDL uptake (Exopolar assay)” value (“inhibition” for short) in assay [1] amounted to 25%. Further, in assay [2], the “IC50; Fab titrated against fixed PCSK9 (25 µg/ml), recovery of cellular diI-LDL uptake (Exopolar assay)” value (“IC50; Fab titrated against fixed PCSK9” for short) was found to be 1250 nM. In addition, in [3], the Kd (in general, the free concentration of one partner at which half of the binding sites on the other are occupied at equilibrium, for simple one-to-one binding) stood at 23.1 nM; the koff (commonly the first-order rate constant of dissociation) turned out to be 0.000642 s⁻¹; the kon (commonly the second-order rate constant of association) is 28000 M⁻¹ s⁻¹. Moreover, the binding result in [4] was “no binding”.

B2: 3CX2A06 (Fab, V domains shown)
VH: QVQLVQSGAEVKKPGESLKISCKGSGYSFSNFWIAWVRQMPGKGLEWMGIIDPSDSWTRYSPSFQGQVTISADKSISTAYLQWSSLKASDTAMYYCARGDGQDFDNWGQGTLVTVSS
VL: DIQMTQSPSSLSASVGDRVTITCRASQNINSYLNWYQQKPGKAPKLLIYAASSLQSGVPSRFSGSGSGTDFTLTISSLQPEDFAVYYCLQNYDLPNTFGQGTKVEIKR
notes: No SPR values are printed for this Fab; also called 3CX2A06 Fab
As to B2, the “inhibition” value in assay [1] was 23%. Moreover, the “IC50; Fab titrated against fixed PCSK9” value in assay [5] is 107 nM. Also, the binding result in [4] was “no binding”.

B3: 3CX3D02 (Fab, V domains shown)
VH: QVQLVQSGAEVKKPGESLKISCKGSGYSFTNSWIGWVRQMPGKGLEWMGIIYPSDSYTIYSPSFQGQVTISADKSISTAYLQWSSLKASDTAMYYCARGGGYYYALMDVWAQGTLVTVSS
VL: DIQMTQSPSSLSASVGDRVTITCRASQTISTWLNWYQQKPGKAPKLLIYAASSLQSGVPSRFSGSGSGTDFTLTISSLQPEDFATYYCLQDSSLPLTFGQGTKVEIKR
notes: also called 3CX3D02 Fab
For the molecule B3, the “inhibition” value in assay [1] was 23%. In assay [6], the “IC50; Fab titrated against fixed PCSK9” value worked out at 289 nM. In assay [3], the Kd came to 7.01 nM, the koff worked out at 0.000876 s⁻¹ and the association rate constant (kon) was 166000 M⁻¹ s⁻¹. In addition, the binding result in assay [4] was “no binding”.

B4: 1CX1G08 (Fab, V domains shown)
VH: QVQLVESGGGLVQPGGSLRLSCAASGFTFSDYWVSWVRQAPGKGLEWVSFISYDGSSTYYADSVKGRFTISRDNSKNTLYLQMNSLRAEDTAVYYCARTYFEGVDVWGQGTLVTVSS
VL: DIELTQPPSVSVAPGQTARISCSGDNIGTYYVHWYQQKPGQAPVLVIYDDSNRPSGIPERFSGSNSGNTATLTISGTQAEDEADYYCGTWDNTSFNLVFGGGTKLTVLG
notes: also called 1CX1G08 Fab
Take B4: the “inhibition” value in assay [1] was determined as 53%. In [7], the “IC50; Fab titrated against fixed PCSK9” value was 267 nM. Besides, in [8], the Kd was determined as 0.55 nM, the koff was found to be 0.000176 s⁻¹ and the kon was determined as 335000 M⁻¹ s⁻¹. For the same molecule, in [4], the binding result was “no binding”.

B5: 3CX4B08 (Fab, V domains shown)
VH: QVQLVESGGGLVQPGGSLRLSCAASGFTFSNYTMNWVRQAPGKGLEWVSFISSSSSETYYADSVKGRFTISRDNSKNTLYLQMNSLRAEDTAVYYCARGYGDMVDLWGQGTLVTVSS
VL: DIELTQPPSVSVAPGQTARISCSGDSIPTYYVAWYQQKPGQAPVLVIYSDTDRPSGIPERFSGSNSGNTATLTISGTQAEDEADYYCQSFDNHGYHVFGGGTKLTVLG
notes: also called 3CX4B08 Fab
Regarding B5, in assay [1], the “inhibition” value stood at 61%. Moreover, the “IC50; Fab titrated against fixed PCSK9” value in assay [9] amounted to 127 nM. Besides, in assay [8], the Kd came out at 2.97 nM, the off-rate constant (koff) is 0.000685 s⁻¹ and the kon is 233000 M⁻¹ s⁻¹. Besides, the binding result in assay [4] is recorded as “no binding”.

Values taken from patent publication US20120082679A1 (Merck Sharp & Dohme, published 2012).
